Data reported in the domain aggregation screens of Martell et al. (2025).

Test: soluble fraction after stress (log2 fold change); higher = more stays soluble; pooled small domains, quantitative proteomics
Conditions: stress: 75 degC
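Further: 20 min heating vs room temperature control held 20 min.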

Sequence	soluble fraction (log2)
HMNEPMITEVKRINYGSIKEIAKNLDVFKGKNGTVIIDERTNTLILTDLSENIEKMLWSIEITD	-0.927
HMNERTKIPLRKIEIGQAVYVDTLEKVGTVIDIQGKQFKVDLAGLPITVAARNLFYPLPQEAKP	-0.736
HMNESADMPDVVNMSLEAAKSQLEGMGLKVKVENVEDDSVEENHVIKTSPVSGEKVKLGTTVTLTVSKGR	-0.116
HMNESEALIARIENLPPIEDLTEKHAEEVKALMTVYSKLKMSDRILVTNYGVLKKDFDALVKKGFLTNED	-0.321
HMNETHANKVYNFLKKKKKPLSAYEILKELASEGISAPTTIYRALNKLVSNGLIHKIESLNAWTV	0.251
HMNETLKQIRINALQYSEKDMATKLGLPLSEYKEIENDKPLNFTLLIRLSQAVGKTIDDLLNAQ	-0.95
HMNEVETWSVQADGATGRIDKWLAEQNEWSRSQVQEWLKAGRVEVDGRVVKPNYKLSGTESIAVHIPEAV	-0.244
HMNEWVSVEERLPTDERPVLAFIGYADTMNGFITTSYYFRFDPDPHWLGEGLIPVGLKTLFWMPLPAP	0.277
HMNEYSLVPDIYGMTYDDALSSLRNVGLDGRLALASTNEDLANADTRVVWQSKEAGSIIDKGSNVMFVID	-0.01
HMNFAERIKELRKEKGITQIDLAEAVGLSKGTVAMWEVDKREANFDTLNKLSDYFQVSIDYLLGRSNDRS	-0.0785
HMNFDVETGLPLDSRLVVSGLIQRDGINSLKRYEGMIVYVESEAKNYQLVGGISNTDWAELS	-1.35
HMNFGEVLQTKRKSMGLTQEDLADKLFVSSETISNWETNKTTPDIDNVIRISQLFDISLNNLLL	-0.415
HMNFIPGEKINLKIVQEGKEKNQGVGYLSDGTMVIVENGSQKLGQDVEVVVIKNIQSSAGKIVFGDISK	0.158
HMNFSRQREIIYEQVRNFPVHPTAEEVYRALKNDNPNLSLGTVYRNLNQLSEAGMLLKIPIADGSDRFDGR	-0.655
HMNFTETENRIYEEILKNVKQHKKKTVVQIAEKVDVAPSYVIKVAKKLGYSGLNEMWYSLSGIY	-0.916
HMNFTMERLYTKELTSEDIDEIKKELNSMGYTEGVEFNIIKGDKTSFIMAERQLKAKMLSHLSDLGLPRGA	-0.245
HMNGAAAEQARKQLMTALKASEFIAQDKLDEWLDALALPQEKRSAIIDAVDELDYEEAISELEN	0.287
HMNGDWISARQEYYIRGLWDLASRAKDEASLQAMLQRIAGVTQIEWISKEKATKVILALRDIAKK	-1.6
HMNGELSQRQWQILRLIAQGLSNEQMARQLFVAPSTIKTHINHLYAKLGVRTRAEAQAIARQKLMA	-1.23
HMNGIFEYSDAKKVPSLVEIENAYRRARVNGAEKFAVIINGEYFGYNPQKRGIYKLNDGEYQIL	-0.428
HMNGKPDMTPIPAGSRNNDLHAWAYGRLLNHPDNAEAIRRDLFERGQTSGLKESELETIWQSIRRQLGGD	0.44
HMNGKTIEVPDITEKSIAEAQLILNQKKLRYNVVDSTRFDPAYLPFSVLTQEPEAGDEVKKNRTIYITLNP	-0.183
HMNGLDSVLRNWARQTLASGGENLLGDLTDHVTRLIISEALIMTGGNRTRAAELLGLSRPTLLAKMDKLNL	-2.92
HMNGPTPEEKLAVVNAEFVRQYGDEYEELELEGEELEEYYQKALNKEDFEYDIPHLPGWDEP	-0.174
HMNHHEIIMKNIDTLLKEKNISISKLEKSLGISNGYISRLRNGKYNFSLDLLLKLAKKFKISIDYLLTDFD	-0.317
HMNHNPSIARKISREIKRGAPPESLLNLARTVNDSYYRSLSFVSIAYSIKGKKSKELFEEAISNLT	-0.107
HMNHTIEENDRVLILDPRGKKYLITVTNRVFHTNLGKLDISELIGKNYGDKIKSHMGKNFSILKPNLIDYI	-0.0314
HMNIAEIGQKVAQQRVALGISQERLAKLSDLSRSTIHHLEHGTLHEIGAAKLFKLLSLLDIQLK	-2.07

Sequence	soluble fraction (log2)
HMNIDQAFISDLERMIMPDISKYELMDIISIMENSGFTIKVEGTGNEVRQVIKPGSKLKKGQKIKIKL	-2.03
HMNIEIIEVQEESTPSEISKIISTESTKIIEDLLNLGVMASLETPLKNQDIEKLLEGYGYIVDIKP	0.0251
HMNIGEKIKKIRTQQNKSTYELADIINKNGFKISQSAISKIENGRKKIDIETLEEIAKALDIEVDLLIT	-0.153
HMNIGIVSLAAVPMRKEPSDRAEMVNQILFGETFDVLEEQEKWTLVQLHHDAYQGWIDRKQWDYASGIAD	-1.33
HMNIIHNPSKNFIESDLNDLKEGMEIEHKKFGYGLIKSIDKTQNHQKAVVNFKLVGEKTLLLSFARLRIV	-3.15
HMNIILFLDELHRLLSDLPPEERNQAIKYYEDYFEDAGPENEQAILKELGSPQELANQIKATT	-0.94
HMNIIMLGEFIKEQRIKRKMTQEYLASELGISRPTYSQIELGTRELTIPEARKMAAIFNISLEDFLAEKE	-2.35
HMNIMNINQALNVLNLKGTVSKEELAKAYKKMAIKYHPDRNPTGVEMMKVINSAYEFLKGLNLEEIKH	0.0759
HMNINLNVGKRLKSIRQNKELSLDEVSNLTNVSKPALAQIERGASSPTINTLWKISKGLKVPLSYFLQE	-0.713
HMNINVRNTGIKAVENNIINLSSDQRTFTWASNDRKLITVPFDENPYSALAAWFKTDEGIEVYQTIEKKL	-0.0488
HMNIWNEWAFKKWIESDEYTGPDMTDFGHRTLVDEEFSKQYKEQMSLFKERVLTDDEFSAKYGDL	-0.811
HMNKEDIASNEKLLGLLNHMSKVLKDIDFIKDDRPMIVRKINHIFKKATLSEEEINILRGVLSAIENHS	-1.46
HMNKEKLLEMFESMSIIIVQSLEEKEQTEDRIETELFNEAKTPRYSTLTKQDIQSVIRNILITVGV	-1.76
HMNKELVVPDLTDMRVKDAEFEAHQVGMRTEIVDSVYVRRLKRGYVYKQNPVPGSKVKKGRRIALTINAV	0.212
HMNKETYIDALERKLWDRLDPDQLRDIISYYKDYFAMEAAKGISEEETIRKLGDPALLAKSILAAE	-0.332
HMNKEVDLPNFVGMTKENAQAQADKIKIKLEFEEEYSSDVEEGKIISQNPEYKENYKIKEKSTVSLKI	0.312
HMNKFKVNERVRVIATGEIGIVKGREILPVEGSKRVNIEYLVKVGNGFSNWKAFSKKELEPVR	-1.88
HMNKFRVGDEVEIVKLDKTIQHFGGEEVLSPVGTKTYITYVDVTGKEIEIDKDIYSYHADDLTLV	≥ 1.04
HMNKKLEMKIEQLDLSVRLFNSLKRSGIYTVAQIIKLTEEDVMRFRSLGRKSFKELKEKLSEHGLEFE	-2.14
HMNKLKALREEQGLSMMEIAKQLNMPYTTYVNYEKGTREPNSEMLIKFSKFFNVTIDYLIGNSEQKN	-2.48
HMNKNLQLMINEIKKGLASEDIETRKKSVLMLSRIDAPEIIQVLEPLKDDSSEEIRKISSKIISVLSKKYT	-0.108
HMNKNQGVTTTNLNFRKSASTSSLVLYTIPKNTTLDILDKLPSGWYKVKYKGLTGYVSGSYV	-2.99
HMNKPTFNIFNNRLTFPFKGDITIYSLDGKRVFSAYNESSVNLSFLNRGSYISEFNNSRSVLIL	-1.34
HMNKRKQRINDLMDLIREQPALSIKNLAEMLNVSEMTIRRDMAYLKSNNLLNRAHGMNFLNS	-0.407
HMNKSEFLNELEKRIRVLEKNEIKDILAEYSQHIDMRMGSGLSEAEAIKDFGDMDDLAAEILEAY	-0.277
HMNKVDEEKNAELVSTIQNKFSDVSAATKKKVKAFMAEHDIPNFKNADEIPTANLEAIVAMLNED	0.255
HMNKYNNIEDLKEEDFENISEKYQVPVSFVKSKLDDLINWHEKNPQKNHYKNYLSALRDWVKRDSLKIKL	-0.132
